According to the Human Domainome abundance scans (Beltran et al. 2025):
± gives the uncertainty stated by the source.

B1: Gamma-crystallin C, residues 4 to 79; numbered along this chain, P07315 (parent)
chain: ITFYEDRAFQGRSYETTTDCPNLQPYFSRCNSIRVESGCWMLYERPNYQGQQYLLRRGEYPDYQQWMGLSDSIRSC

Variants of: B1
Test: abundance fitness (aPCA) (normalised: wild type 0, dead -1); higher = more abundant; growth selection in yeast, the domain comes from the species named
Conditions: Homo sapiens

Variant	abundance fitness
ITFYEDRAFQGRSYETTTDCPNLQPYFSRCNSIRIESGCWMLYERPNYQGQQYLLRRGEYPDYQQWMGLSDSIRSC	-0.916 ± 0.41
ITFYEDRAFQGRSYETTTDCPNLQPYFSRCNSIRVESGCWMLYGRPNYQGQQYLLRRGEYPDYQQWMGLSDSIRSC	0.02 ± 0.057
ITFYEDRAFQGRSYETTTDAPNLQPYFSRCNSIRVESGCWMLYERPNYQGQQYLLRRGEYPDYQQWMGLSDSIRSC	0.124 ± 0.089
ITFYEDRAFQGRSYETTTDCPNLQPYFSRCNHIRVESGCWMLYERPNYQGQQYLLRRGEYPDYQQWMGLSDSIRSC	-0.642 ± 0.21
ITFYEDRAFQGRSYETTTLCPNLQPYFSRCNSIRVESGCWMLYERPNYQGQQYLLRRGEYPDYQQWMGLSDSIRSC	0.042 ± 0.1
ITFYEDRAFQGRSYETTVDCPNLQPYFSRCNSIRVESGCWMLYERPNYQGQQYLLRRGEYPDYQQWMGLSDSIRSC	-0.03 ± 0.064
ITFYEDRAFQGRSYETTSDCPNLQPYFSRCNSIRVESGCWMLYERPNYQGQQYLLRRGEYPDYQQWMGLSDSIRSC	0.044 ± 0.1
ITFYEDRAFQGRSYETTTDCPNLQPYFSRCNSIRVESGCWMLYERPCYQGQQYLLRRGEYPDYQQWMGLSDSIRSC	-0.159 ± 0.15
ITFYEDRAFQGRSYETTTDCPNLQPYFSRCNSIRVESGCWMLYERPEYQGQQYLLRRGEYPDYQQWMGLSDSIRSC	0.047 ± 0.12
ITFYEDRAEQGRSYETTTDCPNLQPYFSRCNSIRVESGCWMLYERPNYQGQQYLLRRGEYPDYQQWMGLSDSIRSC	-0.367 ± 0.21
ITFYEDRAFQGRSYETTTDCPNLQPYFSRCNSIRVESGCWMLTERPNYQGQQYLLRRGEYPDYQQWMGLSDSIRSC	-0.249 ± 0.21
ITFYEDRAFQGRSYETTTDCPNLQPYFSRCNSIRVESGCWMLYERPNYQGQQYLLRRGEYPDIQQWMGLSDSIRSC	-0.028 ± 0.099
ITFYEDRAFQGRSYETTTDCPNLQPYFSRCNSIRVESGCWMLYERPNYQGQQYLLRRGEYPDQQQWMGLSDSIRSC	-0.12 ± 0.093
ITFYEDRAFVGRSYETTTDCPNLQPYFSRCNSIRVESGCWMLYERPNYQGQQYLLRRGEYPDYQQWMGLSDSIRSC	0.033 ± 0.073
ITFYEDRAFQGRSYETTTDCPNLQPYFSRCRSIRVESGCWMLYERPNYQGQQYLLRRGEYPDYQQWMGLSDSIRSC	-0.013 ± 0.24
ITFYEDRAFQGRSYETTTDCPNLIPYFSRCNSIRVESGCWMLYERPNYQGQQYLLRRGEYPDYQQWMGLSDSIRSC	-0.056 ± 0.21
ITFYEDRAFQGRSYETTTDCPNLCPYFSRCNSIRVESGCWMLYERPNYQGQQYLLRRGEYPDYQQWMGLSDSIRSC	-0.131 ± 0.21
ITKYEDRAFQGRSYETTTDCPNLQPYFSRCNSIRVESGCWMLYERPNYQGQQYLLRRGEYPDYQQWMGLSDSIRSC	-0.991 ± 0.27

Variant	abundance fitness
ITWYEDRAFQGRSYETTTDCPNLQPYFSRCNSIRVESGCWMLYERPNYQGQQYLLRRGEYPDYQQWMGLSDSIRSC	-0.789 ± 0.14
ITFYEDRAFQGRSYETTTDCPNLQPYFSRCNSIRVEMGCWMLYERPNYQGQQYLLRRGEYPDYQQWMGLSDSIRSC	-0.031 ± 0.12
ITFYEDRAFQGRSYETTTDCPNLQPYFSRCNSIRVESGCWMLYERPNMQGQQYLLRRGEYPDYQQWMGLSDSIRSC	0.148 ± 0.068
ITFYEDRAFQGRSYETTTDCPNLQPYFSRCNSPRVESGCWMLYERPNYQGQQYLLRRGEYPDYQQWMGLSDSIRSC	-0.756 ± 0.19
ITFYEDRAFQGRSYETTTDCPNLQPYFSRCNSVRVESGCWMLYERPNYQGQQYLLRRGEYPDYQQWMGLSDSIRSC	-0.094 ± 0.097
ITFYEDRAFQGRSYETTTDCPNLQPYFSRCNSIRVESGCWMLYERPNYQGQQSLLRRGEYPDYQQWMGLSDSIRSC	0.022 ± 0.1
ITFYEDRAFQGRSYETTTDCPNLQPYFSRCNSIRVESGCWMLYERPNYQGQQTLLRRGEYPDYQQWMGLSDSIRSC	-0.146 ± 0.14
ITFYEDRAFQGRSYETTTDCPNLQPYFSRCNSIRVESGCWMLYERPNYQGQGYLLRRGEYPDYQQWMGLSDSIRSC	-0.071 ± 0.076
ITFYEDRAFQGRSYETTTDCPNLQPYFSRCNSIRVESGCWMLYERPNYQGQIYLLRRGEYPDYQQWMGLSDSIRSC	-0.105 ± 0.19
ITFYEDRAFQGRSYETTTDCPNLQPYFSRCNSIRVESGCWMLYERPNYQGQQYLLRRGEYPDYQQWDGLSDSIRSC	-0.106 ± 0.15
ITFYEDRAFQGRSYETTTDCPNLQPYFSRCNSIRVESGCWMLYERPNYQGQQYLLRRGEYPDYQQWVGLSDSIRSC	0.008 ± 0.073
ITFYEDRAFQGRSYETTTDCPNLQPYFSRCNSIRVESGCWMLYERPNYQGQQYLLRRGEYPDYQQWNGLSDSIRSC	-0.065 ± 0.17
ITFYEDRAFQGRSYETTTDCPNLQPYFSRCNSIRVESGCWMLYERPNYQGQQYLTRRGEYPDYQQWMGLSDSIRSC	-0.318 ± 0.17
ITFYEDRAFQGRSYETTTDCPNLQPYPSRCNSIRVESGCWMLYERPNYQGQQYLLRRGEYPDYQQWMGLSDSIRSC	-0.865 ± 0.22
ITFYEDRAFQGRSYETTTDCPNLQPYRSRCNSIRVESGCWMLYERPNYQGQQYLLRRGEYPDYQQWMGLSDSIRSC	-0.269 ± 0.08
ITFYEDRAFQGRSYETTTDCPNLQPYDSRCNSIRVESGCWMLYERPNYQGQQYLLRRGEYPDYQQWMGLSDSIRSC	-1.02 ± 0.38
ITFYEDRAFQGRSYETTTDCPNLQPYFSRCNSIRVTSGCWMLYERPNYQGQQYLLRRGEYPDYQQWMGLSDSIRSC	0.11 ± 0.27
ITFYEDRAFQGRSYETTTDCPNLQPYFSRCNSIRVESGCWMEYERPNYQGQQYLLRRGEYPDYQQWMGLSDSIRSC	-1.16 ± 0.37
